Paper PMC7617670, “Activity Regulation of a Glutamine Amidotransferase Bienzyme Complex by Substrate-Induced Subunit Interface Expansion” (ACS catalysis, 2025)

Biological target: T1, PabB, synthase subunit of ADCS from Escherichia coli, as crystallized (His tag cleaved) (Escherichia coli, UniProt P05041 1-453)
T1 construct: PabB, synthase subunit of ADCS, E. coli; the gene was cloned into pET28a; Cho and Mg2+ in 8RP0; also called ADCS synthase subunit; source: E. coli BL21-Gold (DE3), purified (Ni-IMAC, TEV cleavage, reverse IMAC, preparative gel filtration); not shown: His6, N-terminal, cleaved
T1 sequence: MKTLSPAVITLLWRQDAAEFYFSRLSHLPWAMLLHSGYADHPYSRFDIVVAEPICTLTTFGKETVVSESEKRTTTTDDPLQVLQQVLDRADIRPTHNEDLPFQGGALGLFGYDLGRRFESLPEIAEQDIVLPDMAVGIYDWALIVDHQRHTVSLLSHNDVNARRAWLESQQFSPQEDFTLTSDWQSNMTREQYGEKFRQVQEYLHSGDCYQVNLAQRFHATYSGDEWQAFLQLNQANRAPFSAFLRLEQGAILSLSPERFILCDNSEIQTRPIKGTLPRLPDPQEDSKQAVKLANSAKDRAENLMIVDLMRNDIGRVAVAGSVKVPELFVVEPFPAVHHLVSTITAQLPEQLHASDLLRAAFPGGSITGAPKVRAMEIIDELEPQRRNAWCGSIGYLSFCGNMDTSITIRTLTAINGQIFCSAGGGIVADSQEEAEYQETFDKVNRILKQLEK
Experiment: crystal structure; ADCS heterodimer with Gln-TE on aC79; reservoir supplemented with 0.2 M L-Gln, with or without 14.4 mM Cho added afterwards; 0.1 M MES pH 6.5, 1.5 M magnesium sulfate, 18 °C
Details: both partners purified

B1: PabA, glutaminase subunit of ADCS from Escherichia coli, as crystallized, with glutamyl thioester (Gln-TE) on aC79 (enzyme)
chain: MILLIDNYDSFTWNLYQYFCELGADVLVKRNDALTLADIDALKPQKIVISPGPCTPDEAGISLDVIRHYAGRLPILGVCLGHQAMAQAFGGKVVRAAKVMHGKTSPITHNGEGVFRGLANPLTVTRYHSLVVEPDSLPACFDVTAWSETREIMGIRHRQWDLEGVQFHPESILSEQGHQLLANFLHR
modifications: glutamyl thioester (Gln-TE) adduct covalently bound to the catalytic C79
notes: PabA, class I glutaminase subunit of ADCS, E. coli; the gene was cloned into pET28a; Same construct as m20; the adduct forms in one of the two heterodimers of the crystals grown with Gln; also called PabA with Gln-TE; source: E. coli BL21-Gold (DE3), purified (Ni-IMAC, TEV cleavage, reverse IMAC, preparative gel filtration); crystallized with 0.2 M L-Gln; not shown: His6, N-terminal, cleaved
binding result: binds
